Target: human noradrenaline transporter (hNET) (human) (UniProt P23975)
Test: cell-based or functional assay

Sequence of human noradrenaline transporter (hNET) (human) (P23975 whole entry): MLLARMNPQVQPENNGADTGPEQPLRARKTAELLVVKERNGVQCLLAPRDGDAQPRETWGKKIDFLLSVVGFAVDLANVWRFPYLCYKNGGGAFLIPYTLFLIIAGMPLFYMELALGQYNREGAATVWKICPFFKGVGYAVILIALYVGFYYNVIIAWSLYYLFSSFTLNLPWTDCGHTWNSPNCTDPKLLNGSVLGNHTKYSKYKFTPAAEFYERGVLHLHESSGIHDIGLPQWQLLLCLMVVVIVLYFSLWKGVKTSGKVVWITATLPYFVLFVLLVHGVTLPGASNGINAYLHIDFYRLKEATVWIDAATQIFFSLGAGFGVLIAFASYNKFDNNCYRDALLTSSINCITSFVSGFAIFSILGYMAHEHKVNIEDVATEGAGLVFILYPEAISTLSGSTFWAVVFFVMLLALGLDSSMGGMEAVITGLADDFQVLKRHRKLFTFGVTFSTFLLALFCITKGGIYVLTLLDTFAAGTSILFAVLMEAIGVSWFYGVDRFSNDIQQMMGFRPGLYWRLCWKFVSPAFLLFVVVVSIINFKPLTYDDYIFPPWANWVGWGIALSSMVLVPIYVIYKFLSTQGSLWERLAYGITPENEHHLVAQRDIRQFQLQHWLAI

Substance χ-MrIA (peptide) has an Av IC50, inhibition of NA uptake via hNET (log M (unit not given)) of -6.3.

Source: patent publication US20060270832A1
